Tests used:
recombinant human TSLP [1] = target: T1, recombinant human TSLP (human, UniProt Q969D9 29-159); assay: SPR; column 'SPR (Biophysical binding): TSLP (pM)'
T1 construct: also called thymic stromal lymphopoietin
Protocol: (§1) SPR studies were carried out on a Biacore 3000 instrument with a CM5 chip at 25° C. The running buffer comprised 25 mM Hepes, pH 7.5, 150 mM NaCl, 0.5 mg/ml BSA, 0.005% P20. Antibodies were captured via protein A using approximately a 1/50 dilution of each antibody in the running buffer and a 2-minute contact time at a 10 μl/min flow rate. Protein A was immobilized on a CM5 chip via standard amine coupling chemistry in 10 mM acetate pH 4.5. Approximately 800 RU of each antibody was captured. The surfaces were regenerated via a 10 mM glycine pH 1.5 between cycles. Between assays the chip was regenerated with a 2-minute pulse of 100 mM Phosphoric acid. Prior to setting up multicycle kinetic analysis analyte concentration was determined spectrophotometrically using an extinction coefficient of 72,880 M⁻¹ cm⁻¹ for IL4R and 18450 M⁻¹ cm⁻¹ for the TSLP proteins respectively. Analyte samples were prepared by diluting stocks into running buffer to a final concentration of 500 nM for the IL-4R and 25 nM for TSLP followed by serially diluting with a 2-fold series with an association time of 2.5 minutes at a 50 μl/min flow rate. Dissociation data was collected for a period of 1600 seconds. Raw data was analyzed using the Scrubber2 (Biologic Software, AU) program using a double referencing procedure where compound signal is corrected to a blank surface and a buffer injection over the captured antibody surface. Kinetic data was analyzed by fitting to a simple 1:1 binding model. […] The candidates are further described in Table 3.

recombinant human TSLP [2] = target: T1, recombinant human TSLP; assay: cell-based or functional assay
[3] = target: IL-4R on human donor PBMC (B-cells) (human, UniProt P24394 26-825); assay: cell-based or functional assay
recombinant human TSLP [4] = target: T1, recombinant human TSLP; assay: SPR (Biacore 3000, CM5 chip, 25 C): complex captured via protein A, TSLP as analyte, 1:1 fit; column 'TSLP binding(pM)'
Protocol: as §1

B1: Candidate-23: Dupilumab-YTE_Linker-GS4_TSLP TRAP 1 (bispecific antibody, human IgG4 S228P, kappa)
heavy: EVQLVESGGGLEQPGGSLRLSCAGSGFTFRDYAMTWVRQAPGKGLEWVSSISGSGGNTYYADSVKGRFTISRDNSKNTLYLQMNSLRAEDTAVYYCAKDRLSITIRPRYYGLDVWGQGTTVTVSSASTKGPSVFPLAPCSRSTSESTAALGCLVKDYFPEPVTVSWNSGALTSGVHTFPAVLQSSGLYSLSSVVTVPSSSLGTKTYTCNVDHKPSNTKVDKRVESKYGPPCPPCPAPEFLGGPSVFLFPPKPKDTLYITREPEVTCVVVDVSQEDPEVQFNWYVDGVEVHNAKTKPREEQFNSTYRVVSVLTVLHQDWLNGKEYKCKVSNKGLPSSIEKTISKAKGQPREPQVYTLPPSQEEMTKNQVSLTCLVKGFYPSDIAVEWESNGQPENNYKTTPPVLDSDGSFFLYSRLTVDKSRWQEGNVFSCSVMHEALHNHYTQKSLSLSLGGGGGSGGGGSGGGGSGGGGSGAAEGVQIQIIYFNLETVQVTWNASKYSRTNLTFHYRFNGDEAYDQCTNYLLQEGHTSGCLLDAEQRDDILYFSIRNGTHPVFTASRWMVYYLKPSSPKHVRFSWHQDAVTVTCSDLSYGDLLYEVQYRSPFDTEWQSKQENTCNVTIEGLDAEKCYSFWVRVKAMEDVYGPDTYPSDWSEVTCWQRGEIRDACAETPTPPKPKLSKGGSGGSGGSGGSGGSGGSGGSGGSGGSGGSGGSGGSGGSGGSGGSGGSGGSGGSGGSGGSESGYAQNGDLEDAELDDYSFSCYSQLEVNGSQHSLTCAFEDPDVNITNLEFEICGALVEVKCLNFRKLQEIYFIETKKFLLIGKSNICVKVGEKSLTCKKIDLTTIVKPEAPFDLSVVYREGANDFVVTFNTSHLQKKYVKVLMHDVAYRQEKDENKWTHVNLSSTKLTLLQRKLQPAAMYEIKVRSIPDHYFKGFWSEWSPSYYFRTPEINNSSGEMD
light: DIVMTQSPLSLPVTPGEPASISCRSSQSLLYSIGYNYLDWYLQKSGQSPQLLIYLGSNRASGVPDRFSGSGSGTDFTLKISRVEAEDVGFYYCMQALQTPYTFGQGTKLEIKRTVAAPSVFIFPPSDEQLKSGTASVVCLLNNFYPREAKVQWKVDNALQSGNSQESVTEQDSKDSTYSLSSTLTLSKADYEKHKVYACEVTHQGLSSPVTKSFNRGEC
notes: The chains here are built from the component entries; TRAP sits at the C-terminus of the heavy chain
**Q.** With B1 as the binder, how does the Kd (recombinant human TSLP [1]) read?
**A.** 0.0259 nM

**Q.** What about the “IC50, TARC secretion in response to TSLP in PBMCs” value (recombinant human TSLP [2]) of the same binder?
**A.** 1.7 nM

**Q.** And the “IC50, upregulation of CD23 in response to IL-4 in PBMCs” value [3]?
**A.** 17.1 nM

**Q.** And the Kd (recombinant human TSLP [4])?
**A.** 0.0259 nM

B2: Candidate-24: Dupilumab-YTE_Linker-GS4_TSLP TRAP 2 (bispecific antibody, human IgG4 S228P, kappa)
heavy: EVQLVESGGGLEQPGGSLRLSCAGSGFTFRDYAMTWVRQAPGKGLEWVSSISGSGGNTYYADSVKGRFTISRDNSKNTLYLQMNSLRAEDTAVYYCAKDRLSITIRPRYYGLDVWGQGTTVTVSSASTKGPSVFPLAPCSRSTSESTAALGCLVKDYFPEPVTVSWNSGALTSGVHTFPAVLQSSGLYSLSSVVTVPSSSLGTKTYTCNVDHKPSNTKVDKRVESKYGPPCPPCPAPEFLGGPSVFLFPPKPKDTLYITREPEVTCVVVDVSQEDPEVQFNWYVDGVEVHNAKTKPREEQFNSTYRVVSVLTVLHQDWLNGKEYKCKVSNKGLPSSIEKTISKAKGQPREPQVYTLPPSQEEMTKNQVSLTCLVKGFYPSDIAVEWESNGQPENNYKTTPPVLDSDGSFFLYSRLTVDKSRWQEGNVFSCSVMHEALHNHYTQKSLSLSLGGGGGSGGGGSGGGGSGGGGSESGYAQNGDLEDAELDDYSFSCYSQLEVNGSQHSLTCAFEDPDVNITNLEFEICGALVEVKCLNFRKLQEIYFIETKKFLLIGKSNICVKVGEKSLTCKKIDLTTIVKPEAPFDLSVVYREGANDFVVTFNTSHLQKKYVKVLMHDVAYRQEKDENKWTHVNLSSTKLTLLQRKLQPAAMYEIKVRSIPDHYFKGFWSEWSPSYYFRTPEINNSSGEMDGGSGGSGGSGGSGGSGGSGGSGGSGGSGGSGGSGGSGGSGGSGGSGGSGGSGGSGGSGGSGAAEGVQIQIIYFNLETVQVTWNASKYSRTNLTFHYRFNGDEAYDQCTNYLLQEGHTSGCLLDAEQRDDILYFSIRNGTHPVFTASRWMVYYLKPSSPKHVRFSWHQDAVTVTCSDLSYGDLLYEVQYRSPFDTEWQSKQENTCNVTIEGLDAEKCYSFWVRVKAMEDVYGPDTYPSDWSEVTCWQRGEIRDACAETPTPPKPKLSK
light: B1 light
notes: as for B1
**Q.** With B2 as the binder, how does the Kd (recombinant human TSLP [1]) read?
**A.** 0.0168 nM

**Q.** And the “IC50, TARC secretion in response to TSLP in PBMCs” value (recombinant human TSLP [2])?
**A.** 4.3 nM

**Q.** And the “IC50, upregulation of CD23 in response to IL-4 in PBMCs” value [3]?
**A.** 12.5 nM

**Q.** What about the Kd (recombinant human TSLP [4]) of the same binder?
**A.** 0.0168 nM

B3: Candidate-5 (TRAP-2) (other)
heavy chain with C-terminal TSLP TRAP 2 (palivizumab-YTE heavy chain, first linker, TSLP-TRAP): QVTLRESGPALVKPTQTLTLTCTFSGFSLSTSGMSVGWIRQPPGKALEWLADIWWDDKKDYNPSLKSRLTISKDTSANQVVLKVTNMDPADTATYYCARSMITNWYFDVWGAGTTVTVSSASTKGPSVFPLAPCSRSTSESTAALGCLVKDYFPEPVTVSWNSGALTSGVHTFPAVLQSSGLYSLSSVVTVPSSSLGTKTYTCNVDHKPSNTKVDKRVESKYGPPCPPCPAPEFLGGPSVFLFPPKPKDTLYITREPEVTCVVVDVSQEDPEVQFNWYVDGVEVHNAKTKPREEQFNSTYRVVSVLTVLHQDWLNGKEYKCKVSNKGLPSSIEKTISKAKGQPREPQVYTLPPSQEEMTKNQVSLTCLVKGFYPSDIAVEWESNGQPENNYKTTPPVLDSDGSFFLYSRLTVDKSRWQEGNVFSCSVMHEALHNHYTQKSLSLSLGGGGGSGGGGSGGGGSGGGGSESGYAQNGDLEDAELDDYSFSCYSQLEVNGSQHSLTCAFEDPDVNITNLEFEICGALVEVKCLNFRKLQEIYFIETKKFLLIGKSNICVKVGEKSLTCKKIDLTTIVKPEAPFDLSVVYREGANDFVVTFNTSHLQKKYVKVLMHDVAYRQEKDENKWTHVNLSSTKLTLLQRKLQPAAMYEIKVRSIPDHYFKGFWSEWSPSYYFRTPEINNSSGEMDGGSGGSGGSGGSGGSGGSGGSGGSGGSGGSGGSGGSGGSGGSGGSGGSGGSGGSGGSGGSGAAEGVQIQIIYFNLETVQVTWNASKYSRTNLTFHYRFNGDEAYDQCTNYLLQEGHTSGCLLDAEQRDDILYFSIRNGTHPVFTASRWMVYYLKPSSPKHVRFSWHQDAVTVTCSDLSYGDLLYEVQYRSPFDTEWQSKQENTCNVTIEGLDAEKCYSFWVRVKAMEDVYGPDTYPSDWSEVTCWQRGEIRDACAETPTPPKPKLSK
light chain: DIQMTQSPSTLSASVGDRVTITCKCQLSVGYMHWYQQKPGKAPKLLIYDTSKLASGVPSRFSGSGSGTAFTLTISSLQPDDFATYYCFQGSGYPFTFGGGTKLEIKRTVAAPSVFIFPPSDEQLKSGTASVVCLLNNFYPREAKVQWKVDNALQSGNSQESVTEQDSKDSTYSLSSTLTLSKADYEKHKVYACEVTHQGLSSPVTKSFNRGEC
notes: Monospecific TSLP-TRAP complex on palivizumab (human IgG4 S228P, YTE)
**Q.** B3 was tested. Which Kd (recombinant human TSLP [4]) did it give?
**A.** 0.0013 nM

B4: dupilumab (antibody, V domains shown)
VH: EVQLVESGGGLEQPGGSLRLSCAGSGFTFRDYAMTWVRQAPGKGLEWVSSISGSGGNTYYADSVKGRFTISRDNSKNTLYLQMNSLRAEDTAVYYCAKDRLSITIRPRYYGLDVWGQGTTVTVS
VL: DIVMTQSPLSLPVTPGEPASISCRSSQSLLYSIGYNYLDWYLQKSGQSPQLLIYLGSNRASGVPDRFSGSGSGTDFTLKISRVEAEDVGFYYCMQALQTPYTFGQGTKLEIK
**Q.** B4 was tested. Which “IC50, IL-4 biological assay (CD23 upregulation in PBMCs)” value [3] did it give?
**A.** 4.7 nM

B5: Candidate-25 (TRAP-2) (bispecific antibody, human IgG4 S228P, kappa)
heavy chain: EVQLVESGGGLEQPGGSLRLSCAGSGFTFRDYAMTWVRQAPGKGLEWVSSISGSGGNTYYADSVKGRFTISRDNSKNTLYLQMNSLRAEDTAVYYCAKDRLSITIRPRYYGLDVWGQGTTVTVSSASTKGPSVFPLAPCSRSTSESTAALGCLVKDYFPEPVTVSWNSGALTSGVHTFPAVLQSSGLYSLSSVVTVPSSSLGTKTYTCNVDHKPSNTKVDKRVESKYGPPCPPCPAPEFLGGPSVFLFPPKPKDTLYITREPEVTCVVVDVSQEDPEVQFNWYVDGVEVHNAKTKPREEQFNSTYRVVSVLTVLHQDWLNGKEYKCKVSNKGLPSSIEKTISKAKGQPREPQVYTLPPSQEEMTKNQVSLTCLVKGFYPSDIAVEWESNGQPENNYKTTPPVLDSDGSFFLYSRLTVDKSRWQEGNVFSCSVMHEALHNHYTQKSLSLSLG
light chain with N-terminal TSLP TRAP 2 (TSLP-TRAP, first linker, dupilumab-YTE light chain): ESGYAQNGDLEDAELDDYSFSCYSQLEVNGSQHSLTCAFEDPDVNITNLEFEICGALVEVKCLNFRKLQEIYFIETKKFLLIGKSNICVKVGEKSLTCKKIDLTTIVKPEAPFDLSVVYREGANDFVVTFNTSHLQKKYVKVLMHDVAYRQEKDENKWTHVNLSSTKLTLLQRKLQPAAMYEIKVRSIPDHYFKGFWSEWSPSYYFRTPEINNSSGEMDGGSGGSGGSGGSGGSGGSGGSGGSGGSGGSGGSGGSGGSGGSGGSGGSGGSGGSGGSGGSGAAEGVQIQIIYFNLETVQVTWNASKYSRTNLTFHYRFNGDEAYDQCTNYLLQEGHTSGCLLDAEQRDDILYFSIRNGTHPVFTASRWMVYYLKPSSPKHVRFSWHQDAVTVTCSDLSYGDLLYEVQYRSPFDTEWQSKQENTCNVTIEGLDAEKCYSFWVRVKAMEDVYGPDTYPSDWSEVTCWQRGEIRDACAETPTPPKPKLSKGGGGSGGGGSGGGGSGGGGSDIVMTQSPLSLPVTPGEPASISCRSSQSLLYSIGYNYLDWYLQKSGQSPQLLIYLGSNRASGVPDRFSGSGSGTDFTLKISRVEAEDVGFYYCMQALQTPYTFGQGTKLEIKRTVAAPSVFIFPPSDEQLKSGTASVVCLLNNFYPREAKVQWKVDNALQSGNSQESVTEQDSKDSTYSLSSTLTLSKADYEKHKVYACEVTHQGLSSPVTKSFNRGEC
notes: also called Light chain N-terminal TRAP: TSLP TRAP 2_Linker-GS4_Dupilumab-YTE [2 x TRAP 2]
**Q.** For B5, which Kd (recombinant human TSLP [4]) is on record?
**A.** 0.0166 nM

Reference: US20260139033A1 (PRANA THERAPIES, published 2026)
